From publication PMC7815755

Key:
[1] = molecular target: IRGB10 D185R mutant (head-to-head dimer disruption mutant) (mouse) (UniProt Q0GUM3); experiment: SEC-MALS; tentative dimer peak of the head-to-head disruption mutants (Fig. 3e, g)
[2] = molecular target: Immunity-related GTPase B10 (IRGB10), mouse, full length, wild type (mouse) (UniProt Q0GUM3); experiment: SEC-MALS; third peak of the first SEC, Superdex 200 10/300, 20 mM Tris-HCl pH 8.0, 150 mM NaCl, room temperature, no GTP added

Substance | stoichiometry N [1] | stoichiometry N [2]
IRGB10 D185R mutant (head-to-head dimer disruption mutant) (from UniProt Q0GUM3 1-417) (natural protein) | 2 | 
Immunity-related GTPase B10 (IRGB10), mouse, full length, wild type (from UniProt Q0GUM3 1-417) (natural protein) |  | 2
